Laboratory results published in patent US20180256731A1, “NOVEL INSULIN ANALOG AND USE THEREOF” (HANMI PHARM. CO., LTD, priority 2013, published 2018).

What was measured:
[1] = target: Insulin receptor; assay: SPR (BIACORE 3000), receptor on CM5 chip; Test 4
[2] = target: Insulin receptor; assay: SPR (BIACORE 3000), receptor on CM5 chip; Test 2
[3] = target: Insulin receptor; assay: SPR (BIACORE 3000), receptor on CM5 chip; Test 5
[4] = target: Insulin receptor; assay: SPR (BIACORE 3000), receptor on CM5 chip; Test 3
[5] = target: Insulin receptor; assay: SPR (BIACORE 3000), receptor on CM5 chip; Test 1

koff [1]: 0.0124 s⁻¹ | kon [1]: 290000 M⁻¹ s⁻¹ | koff [2]: 0.0101 s⁻¹ | kon [2]: 229000 M⁻¹ s⁻¹ | koff [3]: 0.0097 s⁻¹ | kon [3]: 200000 M⁻¹ s⁻¹ | Kd [4]: 0.0635 µM | koff [4]: 0.0107 s⁻¹ | kon [4]: 176000 M⁻¹ s⁻¹ | koff [5]: 0.00747 s⁻¹ | kon [5]: 221000 M⁻¹ s⁻¹
Substance: Native human insulin (ligand)
